According to patent US7452534:

Key:
[1] = molecular target: T1, recombinant human soluble CD4 (human, UniProt P01730 26-394, limits assumed); test: SPR
T1 construct: Soluble form; also called sCD4

human CD4 on cells [2] = molecular target: T2, human CD4 on cells (human, UniProt P01730 26-458); test: cell-based or functional assay
human CD4 on cells [3] = molecular target: T2, human CD4 on cells; test: cell-based or functional assay; remark: listed apart in the source
[4] = molecular target: T1, recombinant human soluble CD4; test: SPR (BIAcore), soluble CD4 on immobilized mAb, 25 C
Description: (§1) The stoichiometry of binding of soluble CD4 to immobilized mAbs can be determined by saturation binding experiments on BIAcore (Pharmacia). Data for the association and dissociation phases of the SPR progress (FIG. 19) were analyzed directly using the integrated form of the rate equations as described in O'Shannessey et al., Anal. Biochem., 212: 467-468 (1993). […] Thus, the stoichiometry of CD4 binding was the same for all mAbs and close to the theoretical value of 2.0.

[5] = molecular target: T1, recombinant human soluble CD4; test: SPR (BIAcore) saturation binding of soluble CD4 to immobilized mAb
Description: as §1

human C1q = molecular target: T3, human C1q (human, UniProt P02745 23-245; P02746 28-253; P02747 29-245); test: C1q binding (summary table of effector functions)
T3 construct: also called Clq
T3 sequence (P02745 23-245 limits assumed, chain 1 of 3): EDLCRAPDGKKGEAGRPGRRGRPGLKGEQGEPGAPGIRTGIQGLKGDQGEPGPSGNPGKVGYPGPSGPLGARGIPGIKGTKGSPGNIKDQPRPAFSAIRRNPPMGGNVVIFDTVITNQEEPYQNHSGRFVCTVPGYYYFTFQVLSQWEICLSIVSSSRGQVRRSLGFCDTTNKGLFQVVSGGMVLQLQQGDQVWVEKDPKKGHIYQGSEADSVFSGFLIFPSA
T3 sequence (P02746 28-253 limits assumed, chain 2 of 3): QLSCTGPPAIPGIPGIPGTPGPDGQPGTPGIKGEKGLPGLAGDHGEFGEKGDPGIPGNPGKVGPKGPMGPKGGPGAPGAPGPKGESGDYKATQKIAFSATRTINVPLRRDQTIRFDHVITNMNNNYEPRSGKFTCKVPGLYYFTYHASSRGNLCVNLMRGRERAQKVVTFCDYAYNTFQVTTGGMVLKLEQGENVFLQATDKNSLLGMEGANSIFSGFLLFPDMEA
T3 sequence (P02747 29-245 limits assumed, chain 3 of 3): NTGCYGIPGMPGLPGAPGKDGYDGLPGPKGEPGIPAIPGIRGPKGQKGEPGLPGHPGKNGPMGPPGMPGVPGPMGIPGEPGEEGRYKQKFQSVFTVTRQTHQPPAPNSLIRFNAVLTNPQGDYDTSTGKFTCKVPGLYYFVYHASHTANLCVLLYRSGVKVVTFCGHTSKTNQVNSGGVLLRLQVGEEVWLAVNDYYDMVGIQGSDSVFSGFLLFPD

[6] = molecular target: T4, chimpanzee CD4 on lymphocytes (chimpanzee, UniProt P16004 26-458); test: flow cytometry of blood of chimpanzees dosed at 1.5 mg/kg
T4 construct: whole, on cells
T4 sequence (P16004 26-458): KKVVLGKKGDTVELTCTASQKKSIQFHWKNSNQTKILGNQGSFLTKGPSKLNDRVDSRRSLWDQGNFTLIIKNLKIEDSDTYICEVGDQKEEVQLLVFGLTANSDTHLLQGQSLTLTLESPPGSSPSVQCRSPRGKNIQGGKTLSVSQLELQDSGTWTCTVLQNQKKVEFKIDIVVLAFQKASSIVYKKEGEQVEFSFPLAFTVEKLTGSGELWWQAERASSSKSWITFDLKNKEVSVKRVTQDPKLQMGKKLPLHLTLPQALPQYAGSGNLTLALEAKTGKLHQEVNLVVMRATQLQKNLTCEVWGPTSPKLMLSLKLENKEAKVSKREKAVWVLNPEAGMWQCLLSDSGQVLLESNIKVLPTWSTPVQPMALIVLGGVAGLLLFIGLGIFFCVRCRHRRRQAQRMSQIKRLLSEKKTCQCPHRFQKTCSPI
Description: Six chimpanzees were examined for depletion of CD4^+ T cells and/or modulation of the CD4 receptor from the cell surface after infusions of increasing doses of antibody CE9γ4PE, up to 15 mg/kg. Peripheral blood samples were taken from each chimpanzee three weeks and two weeks prior to the start of the study to establish baseline levels for CD4^+ T cells. In addition to CD4^+ cells, CD3^+ and CD8^+ cell levels were also measured by flow cytometry. […] By subtraction of CD8^+ counts from total CD3^+ counts a theoretical value for the number of CD4^+ T cells could be calculated. By comparing this value with the CD4^+ cells measured suing OKT4, CD4 receptor modulation could be distinguished from CD4^+ cell depletion.

B1: CE9.1, monkey/human chimeric anti-CD4 monoclonal antibody (cynomolgus variable domains, human gamma 1 / lambda constant regions) (antibody)
heavy: not shown
light: SYELSQPRSVSVSPGQTAGFTCGGDNVGRKSVQWYQQKPPQAPVLVIYADSERPSGIPARFSGSNSGNTATLTISGVEAGDEADYYCQVWDSTADHWVFGGGTRLTVLGQPKAAPSVTLFPPSSEELQANKATLVCLISDFYPGAVTVAWKADSSPVKAGVETTTPSKQSNNKYAASSYLSLTPEQWKSHRSYSCQVTHEGSTVEKTVAPTECS
notes: domain: gamma 1 constant region; the entries may be DNA and may hold a leader; also called mAb CE9.1; monkey/human recombinant antibody (ATCC No. 69030)
[1]
  Kd: 1 nM
Human CD4 on cells [2]
  inhibition of human MLR (proliferation and IL-2 production), IC50: 0.01 to 0.03 µg/mL
Human CD4 on cells [3]
  MLR IL-2 Production (IC50): 0.005 µg/mL
  MLR Proliferation (IC50): 0.02 µg/mL
[4]
  Kd: 0.99 nM
[5]
  BIAcore Stoichiometry: 1.56 moles CD4/mole mAb

B2: CE9γ4E, chimeric anti-CD4 antibody with human gamma 4 constant domain carrying the E modification (L236E) (antibody, human IgG4, lambda)
heavy: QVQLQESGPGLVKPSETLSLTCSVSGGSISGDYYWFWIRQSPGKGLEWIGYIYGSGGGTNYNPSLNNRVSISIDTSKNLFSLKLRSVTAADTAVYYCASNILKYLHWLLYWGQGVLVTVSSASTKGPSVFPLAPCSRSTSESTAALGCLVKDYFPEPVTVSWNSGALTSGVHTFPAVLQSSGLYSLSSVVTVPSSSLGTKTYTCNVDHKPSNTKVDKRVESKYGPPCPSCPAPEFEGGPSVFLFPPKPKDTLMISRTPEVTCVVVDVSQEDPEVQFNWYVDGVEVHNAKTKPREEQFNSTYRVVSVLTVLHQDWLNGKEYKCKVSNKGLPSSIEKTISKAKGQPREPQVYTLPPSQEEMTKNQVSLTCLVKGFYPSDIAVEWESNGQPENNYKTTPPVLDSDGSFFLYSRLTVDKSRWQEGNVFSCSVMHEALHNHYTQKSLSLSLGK
light: SYELSQPRSVSVSPGQTAGFTCGGDNVGRKSVQWYQQKPPQAPVLVIYADSERPSGIPARFSGSNSGNTATLTISGVEAGDEADYYCQVWDSTADHWVFGGGTRLTVLGQPKAAPSVTLFPPSSEELQANKATLVCLISDFYPGAVTVAWKADSSPVKAGVETTTPSKQSNNKYAASSYLSLTPEQWKSHRSYSCQVTHEGSTVEKTVAPTECS
notes: IgG4 (L236E; 248 Kabat numbering) lambda; also called CE9γ4E(G4E); CE9γE
Human CD4 on cells [3]
  MLR IL-2 Production (IC50): 0.01 µg/mL
  MLR Proliferation (IC50): 0.02 µg/mL
[4]
  Kd: 1.43 nM
[5]
  BIAcore Stoichiometry: 1.72 moles CD4/mole mAb

B3: CE9γ4PE, chimeric anti-CD4 antibody with human gamma 4 constant domain carrying the P and E modifications (S229P, L236E) (antibody, human IgG4 S228P, lambda)
heavy: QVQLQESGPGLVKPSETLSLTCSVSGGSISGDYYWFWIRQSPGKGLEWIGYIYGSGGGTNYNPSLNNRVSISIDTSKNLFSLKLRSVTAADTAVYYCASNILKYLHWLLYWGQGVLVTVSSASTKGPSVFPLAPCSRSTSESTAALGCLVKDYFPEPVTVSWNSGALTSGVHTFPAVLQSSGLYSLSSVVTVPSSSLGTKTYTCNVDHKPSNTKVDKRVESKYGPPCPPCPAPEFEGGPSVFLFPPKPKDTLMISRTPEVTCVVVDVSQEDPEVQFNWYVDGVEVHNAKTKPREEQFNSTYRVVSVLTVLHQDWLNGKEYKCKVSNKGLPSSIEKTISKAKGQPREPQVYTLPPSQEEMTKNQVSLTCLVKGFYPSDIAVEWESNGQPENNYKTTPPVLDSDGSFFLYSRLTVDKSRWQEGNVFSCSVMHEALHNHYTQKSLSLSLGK
light: SYELSQPRSVSVSPGQTAGFTCGGDNVGRKSVQWYQQKPPQAPVLVIYADSERPSGIPARFSGSNSGNTATLTISGVEAGDEADYYCQVWDSTADHWVFGGGTRLTVLGQPKAAPSVTLFPPSSEELQANKATLVCLISDFYPGAVTVAWKADSSPVKAGVETTTPSKQSNNKYAASSYLSLTPEQWKSHRSYSCQVTHEGSTVEKTVAPTECS
notes: IgG4 (S229P, L236E; 241 and 248 Kabat numbering) lambda, expressed in CHO; also called CE97PE(G4PE); CE9-4PE
Human CD4 on cells [3]
  MLR Proliferation (IC50): 0.02 µg/mL
Human C1q
  binding result: no binding
[4]
  Kd: 1.09 nM
[6]
  binding result: binds

B4: CE9γ4, chimeric anti-CD4 antibody with human gamma 4 constant domain (antibody, human IgG4, lambda)
heavy: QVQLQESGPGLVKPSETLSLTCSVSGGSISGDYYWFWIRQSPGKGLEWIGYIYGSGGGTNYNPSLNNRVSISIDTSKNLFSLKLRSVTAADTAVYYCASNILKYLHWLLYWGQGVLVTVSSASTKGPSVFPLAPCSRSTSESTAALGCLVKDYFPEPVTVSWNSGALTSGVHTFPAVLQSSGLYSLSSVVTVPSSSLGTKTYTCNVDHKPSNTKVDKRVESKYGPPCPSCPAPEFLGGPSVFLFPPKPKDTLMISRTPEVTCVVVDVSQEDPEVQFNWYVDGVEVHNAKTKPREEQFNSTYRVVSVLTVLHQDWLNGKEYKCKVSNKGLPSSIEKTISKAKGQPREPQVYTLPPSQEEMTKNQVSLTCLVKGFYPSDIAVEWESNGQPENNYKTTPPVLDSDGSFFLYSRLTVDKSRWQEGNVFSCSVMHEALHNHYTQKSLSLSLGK
light: SYELSQPRSVSVSPGQTAGFTCGGDNVGRKSVQWYQQKPPQAPVLVIYADSERPSGIPARFSGSNSGNTATLTISGVEAGDEADYYCQVWDSTADHWVFGGGTRLTVLGQPKAAPSVTLFPPSSEELQANKATLVCLISDFYPGAVTVAWKADSSPVKAGVETTTPSKQSNNKYAASSYLSLTPEQWKSHRSYSCQVTHEGSTVEKTVAPTECS
notes: IgG4 lambda; also called CE9γ4(G4); anti-CD4 (G4, L, Oz-)
Human CD4 on cells [3]
  MLR IL-2 Production (IC50): 0.005 µg/mL
  MLR Proliferation (IC50): 0.02 µg/mL
[4]
  Kd: 1.34 nM
[5]
  BIAcore Stoichiometry: 1.61 moles CD4/mole mAb

B5: CE9γ4λK, chimeric anti-CD4 antibody with human gamma 4 heavy chain constant domain and human kappa light chain constant region (antibody)
heavy: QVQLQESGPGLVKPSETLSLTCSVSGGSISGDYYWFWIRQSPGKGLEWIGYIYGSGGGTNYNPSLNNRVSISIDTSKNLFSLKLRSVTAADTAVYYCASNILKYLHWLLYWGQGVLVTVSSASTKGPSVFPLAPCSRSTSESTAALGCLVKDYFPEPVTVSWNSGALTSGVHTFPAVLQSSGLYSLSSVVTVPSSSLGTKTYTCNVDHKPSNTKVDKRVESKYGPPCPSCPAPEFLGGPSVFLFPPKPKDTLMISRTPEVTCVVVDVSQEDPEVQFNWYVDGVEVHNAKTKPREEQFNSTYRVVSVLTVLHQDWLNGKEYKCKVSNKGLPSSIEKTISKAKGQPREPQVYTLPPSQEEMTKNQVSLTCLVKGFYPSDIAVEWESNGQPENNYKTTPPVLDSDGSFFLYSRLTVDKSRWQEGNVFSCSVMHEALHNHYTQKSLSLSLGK
light: SYELSQPRSVSVSPGQTAGFTCGGDNVGRKSVQWYQQKPPQAPVLVIYADSERPSGIPARFSGSNSGNTATLTISGVEAGDEADYYCQVWDSTADHWVFGGGTRLTVLG
notes: also called CE9γ4XK; CE9γ4K
[4]
  Kd: 1.08 nM
[5]
  BIAcore Stoichiometry: 1.67 moles CD4/mole mAb
